Data taken from paper PMC4422707.
Several values for one entry are separate records, joined by “and”; a condition that tells them apart may be missing. Equal entries are not always repeated.

Target: His-SUMO-2B protein (FMDV non-structural 2B protein fused to SUMO) (foot-and-mouth disease virus (FMDV) serotype Asia1)
Assay: cross-linking

In the case of “His-SUMO-2B protein (FMDV non-structural 2B protein fused to SUMO) (natural protein)”, the stoichiometry N was 2 and 4 and 6.
